Experimental data as given in patent US20050208046A1.

Target: FLAG-TWEAKR (human)

BrdU incorporation of transfected HUVEC: 6 fold
Substance: M2 anti-FLAG monoclonal antibody cross-linked with goat anti-mouse IgG (tool reagent)
